The labels stand for the following.
B1: Homeobox protein SIX6, residues 134 to 184; numbered along this chain, O95475 (parent)
chain: CFKERTRHLLREWYLQDPYPNPSKKRELAQATGLTPTQVGNWFKNRRQRDR

Among the data in the Human Domainome abundance scans (Beltran et al. 2025) are abundance fitness values, retold here.

± gives the uncertainty stated by the source.

Variants of B1 are the subject of this series. Description: abundance fitness (aPCA) (normalised: wild type 0, dead -1); higher = more abundant; growth selection in yeast, the domain comes from the species named. The settings on record: Homo sapiens.
Regarding CFKERTRHLLREWYLQDPYPNPSKKRELAQAQGLTPTQVGNWFKNRRQRDR, the abundance fitness was -1.01 ± 0.26.
CFKERTRHLLREWYLQDPYPNPSKKRELAQANGLTPTQVGNWFKNRRQRDR: the abundance fitness was -0.84 ± 0.12.
Next, CFKERTRHLLREWYLQDPYPNPSKKRELAQAKGLTPTQVGNWFKNRRQRDR: -0.932 ± 0.1.
Next, CFKERTRHLLREWYLQDPYPNPSKKRELAQAPGLTPTQVGNWFKNRRQRDR: -0.783 ± 0.17.
Next, CFKERTRHLLREWYLQDPYPNPSKKRELAQAEGLTPTQVGNWFKNRRQRDR: -0.519 ± 0.19; CFKERTRHLLREWYLQDPYPNPSKKRELAQARGLTPTQVGNWFKNRRQRDR: -0.799 ± 0.085.
Consider CFKERTRHLLREWYLQDPYPNPSKKRELAQAAGLTPTQVGNWFKNRRQRDR, for which the abundance fitness was -0.572 ± 0.089.
In the case of CFKERTRHLLREWYLQDPYPNPSKKRELAQAIGLTPTQVGNWFKNRRQRDR it was -0.606 ± 0.066.
Consider CFKERTRHLLREWYLQDPYPNPSKKRELAQADGLTPTQVGNWFKNRRQRDR, for which the abundance fitness is -0.719 ± 0.18.
Next, CFKERTRHLLREWYLQDPYPNPSKKRELAQAGGLTPTQVGNWFKNRRQRDR: -0.863 ± 0.069.
With CFKERTRHLLREWYLQDPYPNPSKKRELAQACGLTPTQVGNWFKNRRQRDR, the abundance fitness was -0.174 ± 0.11.
For the variant CFKERTRHLLREWYLQDPYPNPSKKRELAQAYGLTPTQVGNWFKNRRQRDR, the abundance fitness was -0.84 ± 0.26.
Regarding CFKERTRHLLREWYLQDPYPNPSKKRELAQAVGLTPTQVGNWFKNRRQRDR, the abundance fitness is -0.294 ± 0.076.
Regarding CFKERTRHLLREWYLQDPYPNPSKKRELAQAFGLTPTQVGNWFKNRRQRDR, the abundance fitness was -0.947 ± 0.15.
Next, CFKERTRHLLREWYLQDPYPNPSKKRELAQAWGLTPTQVGNWFKNRRQRDR: -0.873 ± 0.13.
As for CFKERTRHLLREWYLQDPYPNPSKKRELAQALGLTPTQVGNWFKNRRQRDR, the abundance fitness is -0.384 ± 0.065.
As for CFKERTRHLLREWYLQDPYPNPSKKRELAQASGLTPTQVGNWFKNRRQRDR, the abundance fitness is -0.312 ± 0.053.
As for CFKERTRHLLREWYLQDPYPNPSKKRELAQATGHTPTQVGNWFKNRRQRDR, the abundance fitness is -0.896 ± 0.066.
Take CFKERTRHLLREWYLQDPYPNPSKKRELAQATGITPTQVGNWFKNRRQRDR: the abundance fitness is -0.638 ± 0.072.
With CFKERTRHLLREWYLQDPYPNPSKKRELAQATGATPTQVGNWFKNRRQRDR, the abundance fitness was -0.911 ± 0.079.
In the case of CFKERTRHLLREWYLQDPYPNPSKKRELAQATGDTPTQVGNWFKNRRQRDR it was -0.936 ± 0.087.
In the case of CFKERTRHLLREWYLQDPYPNPSKKRELAQATGFTPTQVGNWFKNRRQRDR it was -0.725 ± 0.12; in that of CFKERTRHLLREWYLQDPYPNPSKKRELAQATGGTPTQVGNWFKNRRQRDR, -0.742 ± 0.1.
Next, CFKERTRHLLREWYLQDPYPNPSKKRELAQATGETPTQVGNWFKNRRQRDR: -0.624 ± 0.18; CFKERTRHLLREWYLQDPYPNPSKKRELAQATGCTPTQVGNWFKNRRQRDR: -0.806 ± 0.081; CFKERTRHLLREWYLQDPYPNPSKKRELDQATGLTPTQVGNWFKNRRQRDR: -0.504 ± 0.16.
For the variant CFKERTRHLLREWYLQDPYPNPSKKRELIQATGLTPTQVGNWFKNRRQRDR, the abundance fitness was -0.727 ± 0.28.
As to CFKERTRHLLREWYLQDPYPNPSKKRELSQATGLTPTQVGNWFKNRRQRDR, the abundance fitness is -0.058 ± 0.07.
In the case of CFKERTRHLLREWYLQDPYPNPSKKRELNQATGLTPTQVGNWFKNRRQRDR it was -1.03 ± 0.29; in that of CFKERTRHLLREWYLQDPYPNPSKKRELFQATGLTPTQVGNWFKNRRQRDR, -1.07 ± 0.38.
CFKERTRHLLREWYLQDPYPNPSKKRELGQATGLTPTQVGNWFKNRRQRDR: the abundance fitness was -0.397 ± 0.062.
Next, CFKERTRHLLREWYLQDPYPNPSKKRELLQATGLTPTQVGNWFKNRRQRDR: -0.917 ± 0.068.
Next, CFKERTRHLLREWYLQDPYPNPSKKRELPQATGLTPTQVGNWFKNRRQRDR: -0.916 ± 0.2; CFKERTRHLLREWYLQDPYPNPSKKRELHQATGLTPTQVGNWFKNRRQRDR: -0.944 ± 0.15; CFKERTRHLLREWYLQDPYPNPSKKRELVQATGLTPTQVGNWFKNRRQRDR: -0.767 ± 0.063.
Next, CFKERTRHLLREWYLQDPYPNPSKKRELWQATGLTPTQVGNWFKNRRQRDR: -0.923 ± 0.13.
Take CFKERTRHLLREWYLQDPYPNPSKKRELRQATGLTPTQVGNWFKNRRQRDR: the abundance fitness is -0.982 ± 0.11.
As for CFKERTRHLLREWYLQDPYPNPSKKRELEQATGLTPTQVGNWFKNRRQRDR, the abundance fitness was -0.815 ± 0.16.
Regarding CFKERTRHLLREWYLQDPYPNPSKKRELQQATGLTPTQVGNWFKNRRQRDR, the abundance fitness is -0.527 ± 0.095.
Take CFKERTRHLLREWYLQDPYPNPSKKRELTQATGLTPTQVGNWFKNRRQRDR: the abundance fitness is -1.07 ± 0.23.
In the case of CFKERTRHLLREWYLQDPYPNPSKKREYAQATGLTPTQVGNWFKNRRQRDR, the abundance fitness is -0.124 ± 0.13.
Next, CFKERTRHLLREWYLQDPYPNPSKKREPAQATGLTPTQVGNWFKNRRQRDR: -0.958 ± 0.26; CFKERTRHLLREWYLQDPYPNPSKKREQAQATGLTPTQVGNWFKNRRQRDR: -0.88 ± 0.26; CFKERTRHLLREWYLQDPYPNPSKKRERAQATGLTPTQVGNWFKNRRQRDR: -0.765 ± 0.06.
Regarding CFKERTRHLLREWYLQDPYPNPSKKREVAQATGLTPTQVGNWFKNRRQRDR, the abundance fitness was -0.378 ± 0.052.
For CFKERTRHLLREWYLQDPYPNPSKKREWAQATGLTPTQVGNWFKNRRQRDR, the abundance fitness is -0.788 ± 0.15.
As for CFKERTRHLLREWYLQDPYPNPSKKRESAQATGLTPTQVGNWFKNRRQRDR, the abundance fitness was -0.981 ± 0.13.
In the case of CFKERTRHLLREWYLQDPYPNPSKKRELAQMTGLTPTQVGNWFKNRRQRDR, the abundance fitness was -0.008 ± 0.086.
As to CFKERTRHLLREWYLQDPYPNPSKKRELAQLTGLTPTQVGNWFKNRRQRDR, the abundance fitness amounted to 0.068 ± 0.059.
Next, CFKERTRHLLREWYLQDPYPNPSKKRELAQTTGLTPTQVGNWFKNRRQRDR: -0.045 ± 0.094; CFKERTRHLLREWYLQDPYPNPSKKRELAQVTGLTPTQVGNWFKNRRQRDR: -0.151 ± 0.066.
